Measurements as given in patent US20170073386A1.

Experiments:
[1] = target: murine GITR expressed on cells (mouse) (UniProt O35714); experiment: cell-based or functional assay
[2] = target: murine GITR expressed on cells (mouse) (UniProt O35714); experiment: flow cytometry after treatment of mice with mGITRL-FP IgG2a; competitor DTA-1 as stain

Sequence of murine GITR expressed on cells (mouse) (O35714 20-228): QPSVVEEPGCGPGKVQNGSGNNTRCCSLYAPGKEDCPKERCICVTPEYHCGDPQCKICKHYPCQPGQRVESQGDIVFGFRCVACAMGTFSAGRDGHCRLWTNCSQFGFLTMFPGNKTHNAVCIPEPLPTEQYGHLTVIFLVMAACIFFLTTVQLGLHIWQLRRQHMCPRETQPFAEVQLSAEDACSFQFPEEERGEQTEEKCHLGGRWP

EC50, GITR-dependent NFκB reporter gene cell assay (Jurkat mGITR) [1] [nM] | fold potency against DTA-1, GITR-dependent NFκB reporter gene cell assay [1] [fold] | reduction in GITR MFI (DTA-1 staining) on Tregs [2] [%] | Substance
2.31 | – | – | DTA-1 anti-GITR antibody
0.05 | 50 | > 75 | mGITRL-FP mIgG2a (Fc fusion)
